The target in one assay is T1, Nectin-like-1 (UniProt Q8N126 25-330, limits assumed).
T1 construct: Bought recombinant protein; also called CADM3; IgSF4B
T1 sequence (looked up): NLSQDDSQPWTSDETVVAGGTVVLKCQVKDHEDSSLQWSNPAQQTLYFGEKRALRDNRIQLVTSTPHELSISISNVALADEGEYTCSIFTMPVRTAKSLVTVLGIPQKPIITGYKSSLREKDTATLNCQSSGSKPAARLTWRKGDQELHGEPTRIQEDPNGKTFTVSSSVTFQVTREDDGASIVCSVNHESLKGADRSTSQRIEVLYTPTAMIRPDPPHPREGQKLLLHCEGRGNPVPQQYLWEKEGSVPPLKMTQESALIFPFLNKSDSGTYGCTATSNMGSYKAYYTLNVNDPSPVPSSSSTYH
Nature of the assay: ELISA, coated antigen, antibody at 100 ng/ml. Here is the method:
(§1) Coating: Nectin-1, Nectin-2, Nectin-3, Nectin-4, Nectin-like-1, Nectin-like-2, Nectin-like-3, Nectin-like-4, and Nectin-like-5 were diluted to 5 μg/ml in coating buffer (carbonate buffer, pH 9.6) respectively. A 96-well plate was coat with 100 μl per well and incubated overnight at 2-8° C.;
(§2) Sample loading: The plate was taken out, patted dry, and washed twice with 200 μl/well of PBST, then patted dry. The Nectin-4 antibodies prepared in Example 1 (antibody MM11, antibody R012, and antibody R036) were diluted with 1% BSA/PBST to concentrations of 10 μg/ml, 1 μg/ml, 100 ng/ml, and 10 ng/ml, respectively. 1% BSA/PBST solution for dilution was set as a blank control. 100 μl per well was added to the 96-well plate, and incubated at room temperature for 2 hours;
(§3) Reaction termination and plate reading: 100 μl/well of 1 mol/L H3PO4 was added to terminate the reaction and the plated was read. The absorbances of wells in the plate at 450 nm with 650 nm as reference wavelength were read and recorded as OD_{450 nm-650 nm}.

In the next assay the target is T2, Nectin-like-2 (UniProt Q9BY67 45-374, limits assumed).
T2 construct: Bought recombinant protein; also called CADM1; IgSF4
T2 sequence (looked up): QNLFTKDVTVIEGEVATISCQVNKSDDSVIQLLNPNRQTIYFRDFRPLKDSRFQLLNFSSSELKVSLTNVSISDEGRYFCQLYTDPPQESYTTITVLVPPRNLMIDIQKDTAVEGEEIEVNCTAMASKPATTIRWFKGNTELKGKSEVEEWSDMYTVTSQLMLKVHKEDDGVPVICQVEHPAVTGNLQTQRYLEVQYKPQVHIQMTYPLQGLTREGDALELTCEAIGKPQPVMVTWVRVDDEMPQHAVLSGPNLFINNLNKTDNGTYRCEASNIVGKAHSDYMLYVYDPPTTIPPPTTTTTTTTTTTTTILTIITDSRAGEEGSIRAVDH
Nature of the assay: ELISA, coated antigen, antibody at 100 ng/ml. Here is the method:
as §1, §2, §3
For orientation: An ELISA detects its analyte on a solid surface through an enzyme-linked reagent.

In assay [1] the target is T3, recombinant human Nectin-4 protein (human, UniProt Q96NY8 32-349).
T3 construct: Prepared in-house (Jiangsu Mabwell) by transient transfection of CHO cells; also called PVRL-4; PRR-4
T3 sequence: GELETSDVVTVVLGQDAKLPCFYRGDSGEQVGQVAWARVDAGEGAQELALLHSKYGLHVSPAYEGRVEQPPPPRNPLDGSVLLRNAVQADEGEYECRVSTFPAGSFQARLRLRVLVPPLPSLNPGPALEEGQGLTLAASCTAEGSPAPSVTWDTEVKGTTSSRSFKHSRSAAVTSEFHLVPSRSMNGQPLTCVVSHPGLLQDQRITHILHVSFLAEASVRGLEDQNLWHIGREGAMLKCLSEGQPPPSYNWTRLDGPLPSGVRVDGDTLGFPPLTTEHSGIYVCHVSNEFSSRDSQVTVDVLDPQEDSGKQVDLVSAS
Nature of the assay: ELISA, coated antigen, antibody at 100 ng/ml. The protocol:
as §1, §2, §3

The next assay deals with T4, Nectin-3 (UniProt Q9NQS3 58-404, limits assumed).
T4 construct: Bought recombinant protein; also called CD113; PVRL-3
The assay is described as follows: ELISA, coated antigen, antibody at 10 ng/ml. Here is the method:
as §1, §2, §3

Another assay addresses T5, Nectin-like-3 (UniProt Q8N3J6 25-367, limits assumed).
T5 construct: Bought recombinant protein; also called CADM2; IgSF4D
T5 sequence (looked up): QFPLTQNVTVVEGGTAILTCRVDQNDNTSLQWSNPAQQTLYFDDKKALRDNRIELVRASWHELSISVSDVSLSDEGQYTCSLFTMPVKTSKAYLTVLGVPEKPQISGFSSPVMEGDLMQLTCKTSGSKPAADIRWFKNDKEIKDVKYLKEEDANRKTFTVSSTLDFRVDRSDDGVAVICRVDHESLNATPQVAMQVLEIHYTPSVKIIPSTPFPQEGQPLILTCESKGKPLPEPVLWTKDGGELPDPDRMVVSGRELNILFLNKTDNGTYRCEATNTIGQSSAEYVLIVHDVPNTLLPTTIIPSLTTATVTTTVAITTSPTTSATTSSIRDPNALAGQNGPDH
Nature of the assay: ELISA, coated antigen, antibody at 10 ng/ml. The protocol: as §1, §2, §3

The target in a further assay is T6, Nectin-1 (UniProt Q15223 31-334, limits assumed).
T6 construct: Bought recombinant protein; also called CD111; PVRL-1
T6 sequence (looked up): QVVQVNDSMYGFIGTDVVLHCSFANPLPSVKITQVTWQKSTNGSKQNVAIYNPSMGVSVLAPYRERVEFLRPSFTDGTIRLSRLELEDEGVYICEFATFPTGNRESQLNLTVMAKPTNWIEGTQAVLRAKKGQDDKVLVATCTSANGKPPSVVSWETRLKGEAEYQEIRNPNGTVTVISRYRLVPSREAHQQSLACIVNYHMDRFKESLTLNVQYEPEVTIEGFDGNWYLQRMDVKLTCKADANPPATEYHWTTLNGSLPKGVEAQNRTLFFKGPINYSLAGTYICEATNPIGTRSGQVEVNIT
The assay is described as follows: ELISA, coated antigen, antibody at 10 ng/ml. The protocol:
as §1, §2, §3

Assay [2] deals with T3, recombinant human Nectin-4 protein. Nature of the assay: ELISA, coated antigen, antibody at 10 ng/ml. Here is the method: as §1, §2, §3

We go through three molecules from patent US20260265354A1 (JIANGSU MABWELL HEALTH PHARMACEUTICAL R AND D, published 2026).

Positions count from the first letter of the chain named.

T4 sequence (Q9NQS3 58-404 limits assumed): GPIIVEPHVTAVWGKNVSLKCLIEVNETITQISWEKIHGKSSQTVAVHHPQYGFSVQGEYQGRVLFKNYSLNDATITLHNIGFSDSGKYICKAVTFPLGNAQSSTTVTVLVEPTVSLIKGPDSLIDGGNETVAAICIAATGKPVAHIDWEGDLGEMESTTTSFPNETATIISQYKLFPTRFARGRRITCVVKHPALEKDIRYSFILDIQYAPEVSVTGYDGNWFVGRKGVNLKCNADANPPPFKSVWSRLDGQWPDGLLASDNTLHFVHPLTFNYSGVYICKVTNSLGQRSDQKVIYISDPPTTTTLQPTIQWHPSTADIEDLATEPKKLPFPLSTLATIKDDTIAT

B1: Antibody MM11 (antibody, mouse IgG1, kappa, V domains shown)
VH: DVQLQESGPGLVKPSQSLSLTCSVTGYSITSNFYWNWIRQFPGNRLEWMGYISYDGSNNYNPSLKNRISISRDTSKNQFFLKLNSVTTEDTATYYCVRADYWGQGTLVTVSA
VL: DTVMTQTPLSLPVSLGDQASISCRSSQSLESSDGHAYLNWYLQKPGQSPQLLIYRVSNRFSGVLHRFSGSGSGTDFTLKISRVEAEDLGVYFCLQFTHVPFTFGSGTKLEIKR
notes: Mouse monoclonal antibody from hybridoma; also called Nectin-4 mouse monoclonal antibody MM11; mouse antibody MM11
In the case of B1, the OD detection value turned out to be 0.01 OD450 nm-650 nm in the assay with Nectin-like-1; 0.007 OD450 nm-650 nm with Nectin-like-2; 1.64 OD450 nm-650 nm in assay [1]; 0.006 OD450 nm-650 nm with Nectin-3; 0.03 OD450 nm-650 nm with Nectin-like-3; 0.006 OD450 nm-650 nm with Nectin-1. Besides, in assay [2], the OD detection value is 0.58 OD450 nm-650 nm.

B2: Antibody R012 (antibody, V domains shown)
VH: SKSVEESGGRLVTPGTPLTLTCTVSGFSLSTYAMSWVRQAPGKGLEYIGIISGRGTTYYASWLKGRFTISKTSTTVDLKITSPTTEDTATYFCARDAGISDVYTGYFNLWGQGTLVTVSS
VL: QPVLAQLPSASAALGASAKLTCTLSSAHRTYTIAWYQQQQGEAPRYLMMLKSDGSYTKGTGVPDRFSGSSSGADRYLIISSVQAADEADYYCGADDSGGYVFGGGTQLTVTG
notes: Rabbit monoclonal antibody from phage display; also called Nectin-4 rabbit monoclonal antibody R012; rabbit antibody R012
As for B2, the OD detection value in the assay with Nectin-like-1 was 0.008 OD450 nm-650 nm; in the assay with Nectin-like-2, 0.008 OD450 nm-650 nm; in assay [1] it was 1.44 OD450 nm-650 nm; with Nectin-3, 0.008 OD450 nm-650 nm; with Nectin-like-3, 0.009 OD450 nm-650 nm; with Nectin-1, 0.008 OD450 nm-650 nm. Further, the OD detection value in assay [2] was found to be 0.748 OD450 nm-650 nm.

B3: Antibody R036 (antibody, V domains shown)
VH: SQSVEESGGRLVTPGTPLTLTCTVSGFSLSSYAMSWVRQAPGKGLEYIGIIGGRGTTYYAIWAKGRFTISKTSTTVDLKITSPTTEDTATYFCARDAGTTYVGTTYVATGYFNLWGQGTLVTVSS
VL: B2 VL with A5T, L7P, R29K, M49I, K58R, A85D
notes: Rabbit monoclonal antibody from phage display; also called Nectin-4 rabbit monoclonal antibody R036; rabbit antibody R036
As to B3, the OD detection value was 0.007 OD450 nm-650 nm in the assay with Nectin-like-1; 0.007 OD450 nm-650 nm with Nectin-like-2; 1.48 OD450 nm-650 nm in assay [1]; 0.007 OD450 nm-650 nm with Nectin-3; 0.008 OD450 nm-650 nm with Nectin-like-3; 0.007 OD450 nm-650 nm with Nectin-1. In assay [2], the OD detection value was 0.73 OD450 nm-650 nm.
